Experimental data published in EP1224222B1 (ChemoCentryx, Inc., dated 2010).

Target: T1, human CCX CKR with N-terminal Flag epitope, stably expressed on HEK293 cells (human, UniProt Q9NPB9 1-350)
T1 construct: also called HEK293-CCX CKR cells
T1 sequence: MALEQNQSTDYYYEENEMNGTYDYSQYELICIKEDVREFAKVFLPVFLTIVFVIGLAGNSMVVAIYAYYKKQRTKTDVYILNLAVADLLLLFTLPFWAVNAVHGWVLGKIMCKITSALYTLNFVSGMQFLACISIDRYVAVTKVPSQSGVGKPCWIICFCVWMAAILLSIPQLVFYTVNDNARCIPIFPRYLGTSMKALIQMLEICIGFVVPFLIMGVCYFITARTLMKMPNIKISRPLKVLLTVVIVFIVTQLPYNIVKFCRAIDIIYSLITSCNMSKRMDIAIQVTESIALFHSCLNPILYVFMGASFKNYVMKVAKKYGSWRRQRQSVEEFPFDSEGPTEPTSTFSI
Assay: radioligand binding competition on CCX CKR stable transfectants (similar experiments)

- Kd: ~9 nM
B1: murine CTACK (ligand, UniProt Q9Z1X0 26-120, looked up)
chain: LPLPSSTSCCTQLYRQPLPSRLLRRIVHMELQEADGDCHLQAVVLHLARRSVCVHPQNRSLARWLERQGKRLQGTVPSLNLVLQKKMYSHPQQQN
notes: also called mCTACK; CCL27
